T1: human RhoGDI (human, UniProt P52565 1-204)
T1 sequence (looked up): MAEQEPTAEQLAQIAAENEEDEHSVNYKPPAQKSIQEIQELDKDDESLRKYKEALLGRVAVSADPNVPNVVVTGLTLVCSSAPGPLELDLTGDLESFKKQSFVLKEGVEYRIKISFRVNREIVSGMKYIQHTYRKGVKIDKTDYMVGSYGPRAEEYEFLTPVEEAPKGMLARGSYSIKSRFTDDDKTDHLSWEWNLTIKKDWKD


How the values were obtained:
Assay in all cases: ITC
[1] = target: T2, ezrin FERM domain (residues 1-297) (human, UniProt P15311 1-297)
[2] = target: T2, ezrin FERM domain (residues 1-297); remark: listed apart in the source
human RhoGDI = target: T1, human RhoGDI

T2 sequence (P15311 1-297): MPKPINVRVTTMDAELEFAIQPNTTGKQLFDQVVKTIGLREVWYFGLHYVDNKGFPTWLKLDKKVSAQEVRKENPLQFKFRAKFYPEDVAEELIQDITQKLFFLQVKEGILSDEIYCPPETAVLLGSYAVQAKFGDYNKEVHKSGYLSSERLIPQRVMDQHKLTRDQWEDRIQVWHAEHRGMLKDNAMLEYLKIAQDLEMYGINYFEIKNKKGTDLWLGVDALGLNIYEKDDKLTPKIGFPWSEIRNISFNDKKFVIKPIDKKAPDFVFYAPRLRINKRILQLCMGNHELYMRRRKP

dH [1] [kcal/mol] | stoichiometry N [1] | Binder | other results
-3.98 ± 0.39 | 1.33 ± 0.0688 | IQGAP2 Repeats (IQGAP2 residues 211-591) (domain or fragment, human, UniProt Q13576 211-591, looked up) EAALHAAVIAINEAVEKGIAEQTVVTLRNPNAVLTLVDDNLAPEYQKELWDAKKKKEENARLKNSCISEEERDAYEELLTQAEIQGNINKVNRQAAVDHINAVIPEGDPENTLLALKKPEAQLPAVYPFAAAMYQNELFNLQKQNTMNYLAHEELLIAVEMLSAVALLNQALESNDLVSVQNQLRSPAIGLNNLDKAYVERYANTLLSVKLEVLSQGQDNLSWNEIQNCIDMVNAQIQEENDRVVAVGYINEAIDEGNPLRTLETLLLPTANISDVDPAHAQHYQDVLYHAKSQKLGDSESVSKVLWLDEIQQAVDDANVDKDRAKQWVTLVVDVNQCLEGKKSSDILSVLKSSTSNANDIIPECADKYYDALVKAKELKS | 
 |  | ezrin C-terminal fragment (residues 477-586) (domain or fragment, human, UniProt P15311 477-586, looked up) VYEPVSYHVQESLQDEGAEPTGYSAELSSEGIRDDRNEEKRITEAEKNERVQRQLLTLSSELSQARDENKRTHNDIIHNENMRQGRDKYKTLRQIRQGNTKQRIDEFEAL | Ka [2]: 1.13e+06 M⁻¹
 |  | human Cdc42C188S, GDP-bound (natural protein) not shown | Ka (human RhoGDI): 55700 ± 940 M⁻¹; dH (human RhoGDI): -13.29 ± 0.08 kcal/mol; stoichiometry N (human RhoGDI): 0.853 ± 0.0003
-49.1 ± 15.6 | 0.274 ± 0.0243 | IQGAP1 Repeats (IQGAP1 residues 156-672), tag removed (domain or fragment, human, UniProt P46940 156-672, looked up) SLYLFKLGLAPQIQDLYGKVDFTEEEINNMKTELEKYGIQMPAFSKIGGILANELSVDEAALHAAVIAINEAIDRRIPADTFAALKNPNAMLVNLEEPLASTYQDILYQAKQDKMTNAKNRTENSERERDVYEELLTQAEIQGNINKVNTFSALANIDLALEQGDALALFRALQSPALGLRGLQQQNSDWYLKQLLSDKQQKRQSGQTDPLQKEELQSGVDAANSAAQQYQRRLAAVALINAAIQKGVAEKTVLELMNPEAQLPQVYPFAADLYQKELATLQRQSPEHNLTHPELSVAVEMLSSVALINRALESGDVNTVWKQLSSSVTGLTNIEEENCQRYLDELMKLKAQAHAENNEFITWNDIQACVDHVNLVVQEEHERILAIGLINEALDEGDAQKTLQALQIPAAKLEGVLAEVAQHYQDTLIRAKREKAQEIQDESAVLWLDEIQGGIWQSNKDTQEAQKFALGIFAINEAVESGDVGKTLSALRSPDVGLYGVIPECGETYHSDLAEAK | 
